Test results reported in patent US20250313625A1 (ELPISCIENCE SUZHOU BIOPHARMA, published 2025).

T1: human LAG3, full length, stably expressed on cells (human, UniProt P18627 23-525)
T1 construct: whole, on cells; also called CHOK1-human LAG3
T1 sequence (looked up): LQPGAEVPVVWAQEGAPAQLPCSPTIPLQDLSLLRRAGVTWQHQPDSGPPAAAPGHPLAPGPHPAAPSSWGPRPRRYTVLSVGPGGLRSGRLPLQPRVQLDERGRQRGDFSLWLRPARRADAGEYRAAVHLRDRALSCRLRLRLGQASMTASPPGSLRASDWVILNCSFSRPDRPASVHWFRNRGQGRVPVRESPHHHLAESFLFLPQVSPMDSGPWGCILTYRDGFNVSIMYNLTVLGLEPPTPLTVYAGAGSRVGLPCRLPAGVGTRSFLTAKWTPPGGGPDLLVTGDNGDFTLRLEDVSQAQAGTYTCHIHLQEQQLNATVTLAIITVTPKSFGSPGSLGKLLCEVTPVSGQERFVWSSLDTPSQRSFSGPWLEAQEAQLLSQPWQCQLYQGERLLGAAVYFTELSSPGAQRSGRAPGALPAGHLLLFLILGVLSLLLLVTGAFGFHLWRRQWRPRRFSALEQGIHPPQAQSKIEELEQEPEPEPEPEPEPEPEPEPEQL

T2: mFc tagged human LAG3 ECD recombinant protein (human, UniProt P18627 23-450)
T2 construct: extracellular domain; purchased from Biointron; not shown: mouse IgG Fc (mFc) tag
T2 sequence (looked up): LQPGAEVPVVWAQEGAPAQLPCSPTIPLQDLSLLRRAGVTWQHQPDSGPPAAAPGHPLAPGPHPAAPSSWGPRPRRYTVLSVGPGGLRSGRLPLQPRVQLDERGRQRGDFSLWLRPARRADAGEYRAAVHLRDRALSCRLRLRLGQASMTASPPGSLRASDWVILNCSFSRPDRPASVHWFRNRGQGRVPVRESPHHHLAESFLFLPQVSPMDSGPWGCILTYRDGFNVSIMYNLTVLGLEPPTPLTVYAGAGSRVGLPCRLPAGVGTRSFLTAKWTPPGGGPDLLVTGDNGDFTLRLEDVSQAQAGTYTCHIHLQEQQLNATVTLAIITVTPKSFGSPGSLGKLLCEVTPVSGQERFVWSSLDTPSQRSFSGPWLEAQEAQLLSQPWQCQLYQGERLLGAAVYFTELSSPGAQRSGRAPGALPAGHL

T3: human LAG3 ECD recombinant protein (plate coated, tag not stated) (human, UniProt P18627 23-450)
T3 construct: extracellular domain
T3 sequence (looked up): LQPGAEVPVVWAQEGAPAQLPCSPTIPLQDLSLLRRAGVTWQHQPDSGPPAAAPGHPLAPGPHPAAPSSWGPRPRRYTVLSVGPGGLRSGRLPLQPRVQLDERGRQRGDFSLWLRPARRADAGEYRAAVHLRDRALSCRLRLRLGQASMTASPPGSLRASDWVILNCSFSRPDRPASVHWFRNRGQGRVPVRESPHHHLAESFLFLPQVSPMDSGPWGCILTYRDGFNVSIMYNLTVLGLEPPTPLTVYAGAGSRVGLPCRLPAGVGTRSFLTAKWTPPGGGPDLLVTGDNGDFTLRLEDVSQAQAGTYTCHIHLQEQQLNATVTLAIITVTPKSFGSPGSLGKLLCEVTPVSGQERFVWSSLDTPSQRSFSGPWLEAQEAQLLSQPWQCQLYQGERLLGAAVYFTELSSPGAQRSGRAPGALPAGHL

T4: hFc tagged human LAG3 ECD recombinant protein (human, UniProt P18627 23-450)
T4 construct: range 23-450; also called biotin labelled hFc tagged human LAG3 ECD; not shown: human IgG Fc tag
T4 sequence (looked up): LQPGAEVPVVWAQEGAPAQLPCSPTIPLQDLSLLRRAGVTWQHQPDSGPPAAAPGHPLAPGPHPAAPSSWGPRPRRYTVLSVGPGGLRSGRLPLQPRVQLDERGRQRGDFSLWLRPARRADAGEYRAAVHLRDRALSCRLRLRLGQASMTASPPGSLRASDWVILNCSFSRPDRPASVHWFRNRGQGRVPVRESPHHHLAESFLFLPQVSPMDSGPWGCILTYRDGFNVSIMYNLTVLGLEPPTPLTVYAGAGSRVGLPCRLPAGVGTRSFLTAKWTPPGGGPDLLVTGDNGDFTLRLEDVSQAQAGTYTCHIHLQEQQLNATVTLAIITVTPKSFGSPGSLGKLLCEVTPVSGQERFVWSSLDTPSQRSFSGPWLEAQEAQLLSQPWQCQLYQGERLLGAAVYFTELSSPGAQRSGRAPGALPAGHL

T5: hFc tagged human LAG3 D1-D2 recombinant protein (human, UniProt P18627 23-261)
T5 construct: range 23-261; generated by Chempartner; also called hLAG3 D1-D2; not shown: human IgG Fc tag
T5 sequence (looked up): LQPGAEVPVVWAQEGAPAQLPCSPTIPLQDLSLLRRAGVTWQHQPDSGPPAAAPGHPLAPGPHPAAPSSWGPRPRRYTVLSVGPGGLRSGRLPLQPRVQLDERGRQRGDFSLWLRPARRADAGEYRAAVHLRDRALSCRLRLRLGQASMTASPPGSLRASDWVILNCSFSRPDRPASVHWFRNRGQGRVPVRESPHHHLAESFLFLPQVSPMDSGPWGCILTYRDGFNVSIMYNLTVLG

T6: mouse LAG3, full length, stably expressed on CHOK1 cells (mouse, UniProt Q61790 24-521)
T6 construct: whole, on cells
T6 sequence (looked up): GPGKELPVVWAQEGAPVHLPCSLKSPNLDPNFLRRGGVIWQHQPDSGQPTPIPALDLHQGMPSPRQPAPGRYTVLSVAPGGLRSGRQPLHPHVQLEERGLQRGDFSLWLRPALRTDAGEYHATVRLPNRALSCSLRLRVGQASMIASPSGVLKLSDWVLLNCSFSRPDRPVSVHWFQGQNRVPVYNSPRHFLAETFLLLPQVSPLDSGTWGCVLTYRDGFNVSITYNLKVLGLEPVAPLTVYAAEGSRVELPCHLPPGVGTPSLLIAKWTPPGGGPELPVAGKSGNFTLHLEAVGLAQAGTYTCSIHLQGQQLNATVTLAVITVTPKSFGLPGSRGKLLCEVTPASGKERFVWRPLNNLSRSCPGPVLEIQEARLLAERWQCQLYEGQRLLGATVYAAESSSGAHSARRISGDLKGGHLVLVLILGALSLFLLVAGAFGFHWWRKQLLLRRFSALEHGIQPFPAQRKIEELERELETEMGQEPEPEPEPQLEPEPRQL


Key:
[1] = molecular target: T1, human LAG3, full length, stably …; assay: FACS on 293F cells stably expressing human LAG3
Procedure: (§1) Briefly the antibodies were incubated with 2×10⁵ target cells at 4° C. for 1 hour. After washing, fluorescence labeled anti-mouse IgG 2nd antibody (Life Technologies) was added and incubated at 4° C. for 1 hour. Geometric median fluorescence intensity (MFI) was detected and EC₅₀ was calculated using GraphPad Prism9.0.
MFI was detected and EC₅₀ was calculated using GraphPad Prism9.0.

[2] = molecular target: T2, mFc tagged human LAG3 ECD recombinant …; assay: competitive FACS: mFc-LAG3 ECD binding to Raji cells (MHC II)
Procedure: Activity of the purified chimeric antibodies to block LAG3 and MHC II interaction was determined by competitive FACS assay. […] After washing, dye labeled anti-mouse Fc 2nd antibody (Sigma) was added and incubated at 37° C. for 1 hour. Fluorescence intensity was detected.

[3] = molecular target: T3, human LAG3 ECD recombinant protein …; assay: competitive ELISA format I: His-FGL1 binding to coated LAG3 ECD
Procedure: (§2) After washing, HRP labeled anti-His 2nd antibody (Sigma) was added and incubated at 37° C. for 1 hour. Then, 100 μl/well of TMB solution (Biotechnology) was added. After incubation for 15 minutes at room temperature, the reaction was stopped by the addition of 50 μl of 1N HCl. OD 450 nm was read. […] After washing, HRP labeled anti-SA 2nd antibody (Sigma) was added and incubated at 37° C. for 1 hour. Then, 100 μl/well of TMB solution (Biotechnology) was added. After incubation for 15 minutes at room temperature, the reaction was stopped by the addition of 50 μl of 1N HCl. OD 450 nm was read. […] The competition assay of format III is a competitive FACS assay. […] After washing, dye labeled anti-His 2nd antibody (Sigma) was added and incubated at 37° C. for 1 hour. Fluorescence intensity was detected.

[4] = molecular target: T4, hFc tagged human LAG3 ECD recombinant …; assay: competitive ELISA format II: biotin hFc-LAG3 ECD binding to coated His-FGL1
Procedure: as §2

[5] = molecular target: T5, hFc tagged human LAG3 D1-D2 recombinant …; assay: ELISA, coated hFc-hLAG3 D1-D2
Procedure: Binding activity of the purified hybridoma antibodies against human LAG3 was detected by ELISA assay using hFc tagged human LAG3 D1-D2 recombinant protein. Briefly the antibodies were incubated with ELISA microplate coated antigens at 37° C. for 1 hour. After washing, horseradish peroxidase (HRP) labeled anti-human IgG 2nd Ab (Sigma) was added and incubated at 37° C. for 1 hour. Then, 100 μl/well of TMB solution (Biotechnology) was added. After incubation for 15 minutes at room temperature, the reaction was stopped by the addition of 50 μl of 1N HCl. OD 450 nm was read and EC₅₀ was calculated using GraphPad Prism9.0.

[6] = molecular target: T1, human LAG3, full length, stably …; assay: FACS on 293F-human LAG3 cells
Procedure: as §1

[7] = molecular target: T6, mouse LAG3, full length, stably …; assay: FACS on CHOK1 cells expressing mouse LAG3
Procedure: as §1

[8] = molecular target: T7, cyno LAG3, full length, stably expressed on 293F cells (cyno); assay: FACS on 293F-cyno LAG3 cells, 20 nM antibody
T7 construct: whole, on cells
Procedure: as §1

[9] = molecular target: T4, hFc tagged human LAG3 ECD recombinant …; assay: competitive FACS: hFc-LAG3 ECD binding to Raji cells (MHC II)
Procedure: Competitive FACS assay was used to determine whether the purified hybridoma antibodies can block LAG3 and MHC II interaction. […] After washing, dye labeled anti-human Fc 2nd antibody (Sigma) was added and incubated at 37° C. for 1 hour. Fluorescence intensity was detected.

[10] = molecular target: T4, hFc tagged human LAG3 ECD recombinant …; assay: competitive ELISA: excess competitor, biotin hFc-LAG3 ECD, coated BAP-050
Procedure: (§3) Competitive ELISA assay was used for epitope binning of the purified hybridoma antibodies. […] After washing, HRP labeled anti-streptavidin (SA) 2nd antibody (Sigma) was added and incubated at 37° C. for 1 hour. Then, 100 μl/well of TMB solution (Biotechnology) was added. After incubation for 15 minutes at room temperature, the reaction was stopped by the addition of 50 μl of 1N HCl. OD 450 nm was read. Competition ratio was calculated.

[11] = molecular target: T4, hFc tagged human LAG3 ECD recombinant …; assay: competitive ELISA: excess competitor, biotin hFc-LAG3 ECD, coated BMS-986016
Procedure: as §3

Binder | EC50 [1] [nM] | TOP MFI [1] | IC50 [2] [nM] | TOP blocking (%) [2] [%] | Blocking ratio at 66.7 nM (%) [3] [%] | IC50 [4] [nM] | TOP blocking (%) [4] [%] | EC50 [5] [nM] | EC50 [6] [nM] | binding result [7] | MFI at 20 nM [8] [MFI] | IC50 [9] [nM] | TOP blocking (%) [9] [%] | % competition [10] [%] | % competition [11] [%]
047c (antibody, human IgG4, V domains shown, human IgG4 S228P / kappa chimeric antibody; also called chimeric antibody 047; not shown: human kappa light chain constant region (pcDNA3.4-hIgGk vector)) VH: QVQLQQSGAELARPGASVKLSCKASGYSFTSYGVNWVKQRTGQGLEWIGEIYPRSGNTYYNERFGDKATLTADKSSSTAYMEIRSLTSEDSAVYFCARGGTYDGYYYAMDYWGQGTSVTVSS VL: DIVLTQSPASLAVSLGQRATISCRASESVDNFGSSFMHWYQQKPGQAPKLLIYRASNLESGIPARFSGSGSRTDFTLTINPVETDDVATYYCQQVNKDPRTFGGGTKLEIK | 1.3 | 249 | 3.6 | 90.4 | 14 | 35.9 | 12.6 | – | – | – | – | – | – | – | –
Antibody 021 (antibody, V domains shown, mouse hybridoma antibody) VH: DIQLQESGPGLVKPSQSLSLTCSVTGYSITSGYYWNWIRQFPGNKLEWMGDISYDGGNNYNPSLKNRISITRDTSKNQFFLKLNSVTTEDTATYYCARDITLTGAMDYWGQGTSVTVSS VL: DIVLTQSPASLAVSLGQRATISCRASESVDNYGISFMHWYQQRPGQPPKLLIYRASNLESGIPARFSGSGSRTDFTLTINPVETDDVATYYCQQSNKDPYTFGGGTKLEIK | – | – | – | – | – | – | – | 0.02 | 5.52 | no binding | 105 | 4 | 98.6 | 57.1 | 6.9
